Data as given in the Human Domainome abundance scans (Beltran et al. 2025).
± gives the uncertainty stated by the source.

B1: Histidine--tRNA ligase, cytoplasmic, residues 8 to 45; numbered along this chain, P12081 (parent)
chain: EELVKLQGERVRGLKQQKASAELIEEEVAKLLKLKAQL
B2: Poly(rC)-binding protein 1, residues 278 to 350; numbered along this chain, Q15365 (parent)
chain: TQTTHELTIPNNLIGCIIGRQGANINEIRQMSGAQIKIANPVEGSSGRQVTITGSAASISLAQYLINARLSSE

Variants of: B1
Experiment: abundance fitness (aPCA) (normalised: wild type 0, dead -1); higher = more abundant; growth selection in yeast, the domain comes from the species named
Details: Homo sapiens

Abundance fitness of substitutions, site by site:
L32: M 0.206 ± 0.087; T 0.117 ± 0.13; K 0.105 ± 0.11; A 0.227 ± 0.089; H 0.08 ± 0.087; Q 0.201 ± 0.095; F -0.289 ± 0.076; S 0.112 ± 0.09; R 0.096 ± 0.079; N 0.247 ± 0.091; P 0.098 ± 0.11; I -0.093 ± 0.1; G 0.121 ± 0.091; D 0.174 ± 0.1; V -0.076 ± 0.083; C 0.116 ± 0.096; W -0.098 ± 0.1
E26: R 0.1 ± 0.08; W -0.594 ± 0.12; D -0.009 ± 0.096; M 0.168 ± 0.1; P -0.024 ± 0.084; S 0.184 ± 0.074; A 0.263 ± 0.087; G -0.146 ± 0.11; H 0.284 ± 0.12; V -0.116 ± 0.084; I 0.086 ± 0.13; F -0.038 ± 0.083; C -0.024 ± 0.085; L -0.046 ± 0.067; Q 0.139 ± 0.093; K 0.184 ± 0.092
Q37: G 0.191 ± 0.089; C -0.057 ± 0.12; R -0.143 ± 0.074; L -0.164 ± 0.072; H -0.224 ± 0.097; M -0.02 ± 0.11; N -0.04 ± 0.11; K 0.041 ± 0.091; E 0.28 ± 0.16; F -0.693 ± 0.16; T -0.113 ± 0.075; D 0.119 ± 0.12; I -0.29 ± 0.075; S 0.065 ± 0.076; A 0.152 ± 0.089; P 0.083 ± 0.077; Y -0.532 ± 0.1; V -0.173 ± 0.093
L34: M 0.121 ± 0.12; K -0.1 ± 0.094; Y -0.093 ± 0.093; E 0.083 ± 0.084; I -0.176 ± 0.085; F -0.148 ± 0.095; T -0.066 ± 0.091; W -0.237 ± 0.088; C -0.197 ± 0.078; Q 0.061 ± 0.11; V -0.064 ± 0.093; H -0.06 ± 0.097; R -0.151 ± 0.097; D 0.05 ± 0.12; P 0.209 ± 0.089; A -0.054 ± 0.094; G -0.128 ± 0.079
L38: H -0.012 ± 0.15; V -0.209 ± 0.18; K 0.14 ± 0.25; E 0.204 ± 0.11; T 0.034 ± 0.094; N -0.05 ± 0.19; R -0.067 ± 0.12; I -0.389 ± 0.11; A 0.15 ± 0.14; S 0.009 ± 0.093; D 0.003 ± 0.26; W -0.154 ± 0.2; P -0.026 ± 0.08; F -0.526 ± 0.12; M 0.193 ± 0.13; Q 0.166 ± 0.1
A29: C -0.415 ± 0.093; K -0.299 ± 0.17; L -0.462 ± 0.083; W -0.804 ± 0.17; Q 0.07 ± 0.11; H -0.265 ± 0.093; I -0.618 ± 0.11; F -0.8 ± 0.11; P -0.37 ± 0.09; N -0.183 ± 0.081; R -0.189 ± 0.076; T -0.26 ± 0.1; D 0.106 ± 0.11; G -0.092 ± 0.09; M -0.069 ± 0.11; V -0.277 ± 0.084
V28: N 0.081 ± 0.098; Q 0.366 ± 0.1; D 0.152 ± 0.11; C -0.076 ± 0.093; F -0.378 ± 0.078; R -0.027 ± 0.084; A 0.177 ± 0.095; H -0.012 ± 0.1; S 0.094 ± 0.08; G -0.195 ± 0.11; P -0.119 ± 0.1; M 0.06 ± 0.1; T 0.159 ± 0.099; I -0.303 ± 0.09; K 0.107 ± 0.14; L -0.271 ± 0.076; E 0.316 ± 0.13
L31: P 0.123 ± 0.088; K 0.002 ± 0.098; V -0.436 ± 0.073; N 0.22 ± 0.11; I -0.426 ± 0.087; A -0.084 ± 0.1; T -0.058 ± 0.093; M -0.338 ± 0.12; E 0.257 ± 0.09; R -0.126 ± 0.07; S 0.026 ± 0.076; C -0.187 ± 0.097; F -0.397 ± 0.084; G -0.044 ± 0.093; D 0.222 ± 0.094; Q 0.087 ± 0.12; Y -0.199 ± 0.1; H -0.144 ± 0.11; W -0.172 ± 0.093
K33: C -0.451 ± 0.093; E 0.226 ± 0.13; Y -0.313 ± 0.1; F -0.338 ± 0.11; T -0.093 ± 0.095; I -0.407 ± 0.14; Q 0.037 ± 0.1; R -0.109 ± 0.075; N -0.203 ± 0.26; L -0.34 ± 0.083; A -0.081 ± 0.11; G -0.147 ± 0.089; V -0.436 ± 0.083; S 0.071 ± 0.074; P -0.056 ± 0.097; H -0.039 ± 0.084
E27: W -1.11 ± 0.13; V -1.1 ± 0.093; H -0.436 ± 0.093; R -0.741 ± 0.084; T -0.798 ± 0.085; A -0.108 ± 0.089; S -0.291 ± 0.077; P -0.214 ± 0.091; N -0.079 ± 0.078; M -0.874 ± 0.16; K -0.649 ± 0.15; I -1.47 ± 0.15
I24: M -0.03 ± 0.077; S -0.171 ± 0.08; V -0.035 ± 0.078; L 0.03 ± 0.072; R -0.184 ± 0.081; W -1.01 ± 0.31; Y 0.131 ± 0.18; T -0.012 ± 0.088; Q 0.163 ± 0.09; N -0.137 ± 0.1
K30: A -0.04 ± 0.081; H -0.247 ± 0.097; S -0.218 ± 0.069; E 0.1 ± 0.09; F -0.722 ± 0.097; W -0.639 ± 0.12; G -0.364 ± 0.11; T -0.246 ± 0.078; Q -0.102 ± 0.12; L -0.211 ± 0.076; P -0.219 ± 0.074; I -0.232 ± 0.098; Y -0.484 ± 0.11; V -0.136 ± 0.094; R -0.204 ± 0.079; M -0.234 ± 0.13; C -0.411 ± 0.08; D 0.072 ± 0.15; N -0.119 ± 0.084
E25: D 0.012 ± 0.097; Q 0.071 ± 0.097; H 0 ± 0.09; S 0.032 ± 0.073; G -0.052 ± 0.077; P -0.208 ± 0.095; M -0.184 ± 0.11; L -0.484 ± 0.098; A 0.128 ± 0.091; N 0.055 ± 0.13; K -0.001 ± 0.11; I -0.621 ± 0.13; C -0.331 ± 0.16; R -0.064 ± 0.069; T -0.009 ± 0.081; W -0.586 ± 0.11
K35: Y -0.518 ± 0.098; E 0.193 ± 0.12; M 0.277 ± 0.11; S 0.611 ± 0.07; P 0.394 ± 0.087; N 0.597 ± 0.12; G 0.78 ± 0.098; W -0.936 ± 0.26; I -0.335 ± 0.096; C 0.383 ± 0.09; V 0.271 ± 0.086; A 0.627 ± 0.1; F -0.893 ± 0.11; Q 0.414 ± 0.14; T 0.392 ± 0.076; L -0.051 ± 0.073; D 0.227 ± 0.094; R -0.005 ± 0.077; H -0.532 ± 0.091

Variants of: B2
Experiment: as above
Details: Homo sapiens

Abundance fitness, by site and new letter:
T3: I -0.345 ± 0.21; Y -0.221 ± 0.17; A 0.048 ± 0.05; G 0.167 ± 0.033; R 0.119 ± 0.035; S 0.119 ± 0.046; M 0.161 ± 0.068; V 0.023 ± 0.045; C -0.009 ± 0.09; D 0.053 ± 0.091; H 0.147 ± 0.1; L 0.079 ± 0.047; P -0.16 ± 0.078; N 0.113 ± 0.095; Q 0.11 ± 0.051; K 0.257 ± 0.073; E 0.285 ± 0.052
T4: F -0.182 ± 0.14; A -0.109 ± 0.053; Q -0.087 ± 0.073; Y 0.013 ± 0.1; W -0.31 ± 0.063; H -0.26 ± 0.13; I -0.292 ± 0.15; D -0.284 ± 0.084; L -0.217 ± 0.055; M -0.189 ± 0.073; V -0.088 ± 0.046; P -0.271 ± 0.077; R -0.155 ± 0.041; S 0.008 ± 0.053; N -0.138 ± 0.17; E -0.113 ± 0.066
Q2: T 0.142 ± 0.051; I 0.118 ± 0.093; R 0.054 ± 0.037; P -0.128 ± 0.079; A -0.177 ± 0.041; C -0.263 ± 0.064; Y 0.082 ± 0.087; D 0.052 ± 0.073; W 0.017 ± 0.04; V 0.015 ± 0.043; G 0.031 ± 0.035; M 0.075 ± 0.054; K 0.101 ± 0.046; E -0.077 ± 0.044
H5: V 0.217 ± 0.042; F -0.32 ± 0.2; T 0.066 ± 0.085; K 0.107 ± 0.069; G -0.081 ± 0.038; R 0.091 ± 0.041; Y -0.083 ± 0.11; Q 0.253 ± 0.059; M 0.136 ± 0.057; N -0.173 ± 0.088; D -0.323 ± 0.073; I 0.113 ± 0.091; P -0.699 ± 0.19; C 0.104 ± 0.084; S 0.091 ± 0.056; E -0.073 ± 0.061; A 0.139 ± 0.043; W 0.091 ± 0.048
L7: A -0.504 ± 0.073; K -0.53 ± 0.18; D -0.616 ± 0.15; C -0.208 ± 0.081; I -0.013 ± 0.12; F -0.051 ± 0.087; E -0.331 ± 0.085; M 0.113 ± 0.055; H -0.744 ± 0.2; G -0.517 ± 0.059
E6: R 0.164 ± 0.04; W -0.102 ± 0.051; Q 0.156 ± 0.077; H 0.232 ± 0.11; M 0.07 ± 0.067; P -0.965 ± 0.37; I 0.116 ± 0.18; T 0.294 ± 0.074; F -0.088 ± 0.14; C 0.168 ± 0.061; N 0.161 ± 0.08; A 0.002 ± 0.043; V 0.135 ± 0.044; S 0.08 ± 0.055; K 0.113 ± 0.068; Y 0.218 ± 0.087
T1: G -0.02 ± 0.048; V 0.061 ± 0.058; C -0.218 ± 0.12; N 0.194 ± 0.12; W -0.287 ± 0.083; M 0.058 ± 0.088; K -0.191 ± 0.12; E 0.106 ± 0.085; I 0.094 ± 0.084; A -0.086 ± 0.066; D 0.167 ± 0.097; P -0.141 ± 0.15; S 0.012 ± 0.061; Q -0.559 ± 0.24; Y -0.072 ± 0.16
